Measurements as given in article PMC4243950, “Characterization of the accessory protein ClpT1 from Arabidopsis thaliana: oligomerization status and interaction with Hsp100 chaperones” (BMC Plant Biology, 2014).
One block for each molecule: values may come before it.

How the values were obtained:
[1] = target: glutathione S-transferase; test: cross-linking; EGS at 10, 20, 30 and 50-fold molar excess, 25 μM protein, 50 mM Hepes pH 7.5, 100 mM NaCl, 30 min at room temperature; SDS-PAGE with Coomassie staining
[2] = target: ClpT1 (recombinant mature ClpT1 from Arabidopsis thaliana, His-tag removed) (Arabidopsis thaliana) (UniProt Q93WL3); test: SEC; 6-fold concentrated sample and 10-fold diluted sample of ClpT1 injected; data not shown
[3] = target: ClpT1 (recombinant mature ClpT1 from Arabidopsis thaliana, His-tag removed) (Arabidopsis thaliana) (UniProt Q93WL3); test: cross-linking; EGS at 10, 20, 30 and 50-fold molar excess, 25 μM protein, 50 mM Hepes pH 7.5, 100 mM NaCl, 30 min at room temperature; SDS-PAGE with Coomassie staining
[4] = target: ClpD (recombinant chloroplastic Hsp100 chaperone from Arabidopsis) (Arabidopsis thaliana) (UniProt P42762)
[5] = target: ClpC2 (recombinant chloroplastic Hsp100 chaperone from Arabidopsis) (Arabidopsis thaliana) (UniProt Q9SXJ7); test: ultrafiltration (retention by a 50 kDa cut-off membrane); ClpC2 or ClpD with ClpT1 or GFP, 1.3 μM each, 50 mM Tris-HCl pH 8.0, 150 mM NaCl, 10 mM MgCl2, 5 mM ATP, 10 min at 25°C; Vivaspin 500, 30 s at 11,500 x g; permeate and retentate on SDS-PAGE, densitometry
[6] = target: ClpD (recombinant chloroplastic Hsp100 chaperone from Arabidopsis) (Arabidopsis thaliana) (UniProt P42762); test: as above
[7] = target: ClpD (recombinant chloroplastic Hsp100 chaperone from Arabidopsis) (Arabidopsis thaliana) (UniProt P42762); remark: listed apart in the source
[8] = target: ClpT1 (recombinant mature ClpT1 from Arabidopsis thaliana, His-tag removed) (Arabidopsis thaliana) (UniProt Q93WL3); test: SEC; purified ClpT1 on Superdex 75 10/300 GL, 0.5 mL/min, 50 mM Tris-HCl pH 8.0, 100 mM NaCl; monomer and dimer peaks integrated
[9] = target: ClpT1 (recombinant mature ClpT1 from Arabidopsis thaliana, His-tag removed) (Arabidopsis thaliana) (UniProt Q93WL3); test: SEC; the small dimer peak of the first run collected and reinjected into the column (second SEC step)
ClpC2 = target: T1, ClpC2 (Arabidopsis thaliana, UniProt Q9SXJ7); test: ATPase, inorganic phosphate release, Malachite green; format: biochemical; conditions: ClpC2 0.5 uM; basal activity without ClpT1
T1 construct: Hsp100 chaperones can assemble into hexamers
T1 sequence (Q9SXJ7 46-952): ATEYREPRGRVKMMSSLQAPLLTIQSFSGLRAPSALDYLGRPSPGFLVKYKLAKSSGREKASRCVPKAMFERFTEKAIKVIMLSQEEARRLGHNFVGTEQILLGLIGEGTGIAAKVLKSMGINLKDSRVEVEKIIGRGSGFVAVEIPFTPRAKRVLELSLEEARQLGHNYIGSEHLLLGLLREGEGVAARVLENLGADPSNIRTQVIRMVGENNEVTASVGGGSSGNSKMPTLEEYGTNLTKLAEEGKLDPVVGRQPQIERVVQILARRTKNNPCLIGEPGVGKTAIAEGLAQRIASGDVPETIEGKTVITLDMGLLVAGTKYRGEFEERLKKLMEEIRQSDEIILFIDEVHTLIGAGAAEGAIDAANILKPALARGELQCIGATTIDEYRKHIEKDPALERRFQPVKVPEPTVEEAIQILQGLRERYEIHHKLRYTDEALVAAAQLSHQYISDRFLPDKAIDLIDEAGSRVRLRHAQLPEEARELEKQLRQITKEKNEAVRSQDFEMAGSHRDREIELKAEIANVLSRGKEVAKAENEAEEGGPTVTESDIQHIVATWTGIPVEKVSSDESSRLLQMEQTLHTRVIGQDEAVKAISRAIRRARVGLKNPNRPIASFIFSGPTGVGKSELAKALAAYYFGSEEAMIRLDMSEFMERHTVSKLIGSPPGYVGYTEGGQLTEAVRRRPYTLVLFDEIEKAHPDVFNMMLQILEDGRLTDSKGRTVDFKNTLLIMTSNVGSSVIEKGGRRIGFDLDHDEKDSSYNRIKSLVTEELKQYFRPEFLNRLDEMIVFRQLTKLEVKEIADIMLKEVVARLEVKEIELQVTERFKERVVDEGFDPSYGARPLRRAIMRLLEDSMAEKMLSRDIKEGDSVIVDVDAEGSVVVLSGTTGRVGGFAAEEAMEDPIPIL

[10] = substrate: Nc1ncnc2c1ncn2[C@@H]1O[C@H](COP(=O)(O)OP(=O)(O)OP(=O)(O)O)[C@@H](O)[C@H]1O; test: ATPase, inorganic phosphate release, Malachite green; Michaelis-Menten fit; format: biochemical, Arabidopsis thaliana; conditions: without ClpT1; ClpD 0.5 uM; ATP varied 0-12 mM, complete saturation not reached (extrapolated)

stoichiometry N [1]: 2
Molecule: glutathione S-transferase (enzyme)

percent dimer compared to the monomer species [2]: < 5% | percent of the total protein cross-linked as dimer at the highest EGS concentration [3]: 60% | stoichiometry N [3]: 2 | ATPase activity of ClpD (Malachite green), ClpT1:ClpD molar ratios from approximately 0.15:1 to 6:1; activation over the basal activity, back to the basal value at 6:1 [4]: > 50% | percent of ClpT1 kept in the retentate [5]: > 75% | percent of ClpT1 kept in the retentate [6]: > 75% | Vmax of the ClpD ATPase in the presence of ClpT1 at a 1:1 molar ratio (0.19 nmol/(min × μg protein) without ClpT1) (nmol/(min × μg protein)) [7]: 0.43 | percent of the total protein in the dimer peak [8]: < 5% | stoichiometry N [8]: 2 | percent of the total protein in the dimer peak after reinjection of the dimer peak [9]: > 92%
Molecule: ClpT1 (recombinant mature ClpT1 from Arabidopsis thaliana, His-tag removed) (from UniProt Q93WL3 65-238) (natural protein)

Molecule: Nc1ncnc2c1ncn2[C@@H]1O[C@H](COP(=O)(O)OP(=O)(O)OP(=O)(O)O)[C@@H](O)[C@H]1O [ATP]
specific activity (ClpC2): Both chaperones have a basal ATPase activity

B1: ClpD (Arabidopsis thaliana) (protein)
chain: AIIFSQKEAKSLGKDMVYTQHLLLGLIAEDRDPQGFLGSGITIDKAREAVWSIWDEANSDSKQEEASSTSYSKSTDMPFSISTKRVFEAAVEYSRTMDCQYIAPEHIAVGLFTVDDGSAGRVLKRLGANMNLLTAAALTRLKGEIAKDGREPSSSSKGSFESPPSGRIAGSGPGGKKAKNVLEQFCVDLTARASEGLIDPVIGREKEVQRVIQILCRRTKNNPILLGEAGVGKTAIAEGLAISIAEASAPGFLLTKRIMSLDIGLLMAGAKERGELEARVTALISEVKKSGKVILFIDEVHTLIGSGTVGRGNKGSGLDIANLLKPSLGRGELQCIASTTLDEFRSQFEKDKALARRFQPVLINEPSEEDAVKILLGLREKYEAHHNCKYTMEAIDAAVYLSSRYIADRFLPDKAIDLIDEAGSRARIEAFRKKKEDAICILSKPPNDYWQEIKTVQAMHEVVLSSRQKQDDGDAISDESGELVEESSLPPAAGDDEPILVGPDDIAAVASVWSGIPVQQITADERMLLMSLEDQLRGRVVGQDEAVAAISRAVKRSRVGLKDPDRPIAAMLFCGPTGVGKTELTKALAANYFGSEESMLRLDMSEYMERHTVSKLIGSPPGYVGFEEGGMLTEAIRRRPFTVVLFDEIEKAHPDIFNILLQLFEDGHLTDSQGRRVSFKNALIIMTSNVGSLAIAKGRHGSIGFILDDDEEAASYTGMKALVVEELKNYFRPELLNRIDEIVIFRQLEKAQMMEILNLMLQDLKSRLVALGVGLEVSEPVKELICKQGYDPAYGARPLRRTVTEIVEDPLSEAFLAGSFKPGDTAFVVLDDTGNPSVRTKPDSSTIRVTDKTSIA
notes: Hsp100 chaperones can assemble into hexamers
Km [10]: 19.1 mM
